B1: 42 (protein)
chain: YFGKLKSKLSVIRNLNDQVLFIDQGNRPLFEDMTDSDCRDNAPRTIFIISMYADAQPRGMAVAISVKCEKISTLSCENKIISFKEMNPPDNIKDTKSDIIFFQRSVPGHDNKMQFESSSYEGYFLACEKERDLFKLILKKEDELGDRSIMFTVQNED
B2: 46 (protein)
chain: YFGKLKSKLSVIRNLNDQVLFIDQGNRPLFEDMTDSDCRDNAPRTIFIISGYADAQPRGMAVTISVKCEKISTLSCENKIISFKEMNPPDNIKDTKSDIIFFQRSVPGHDNKMQFESSSYEGYFLACEKERDLFKLILKKEDELGDRSIMFTVQNED
B3: 47 (protein)
chain: YFGKLESKLSVIRNLNDQVLFIDQGNRPLFEDMTDSDSRDNAPRTIFIISMYKDSQPRGMAVTISVKSEKISTLSSENKIISFKEMNPPDNIKDTKSDIIFFQRSVPGHDNKMQFESSSYEGYFLASEKERDLFKLILKKEDELGDRSIMFTVQNED
B4: 48 (protein)
chain: YFGKLESKLSVIRNLNDQVLFIDQGNRPLFEDMTDSDSRDNAPRTIFIISMYKDSQPRGMAVTISVKSECISTLSSENKIISFKEMNPPDNIKDTKSDIIFFQRSVPGHDNKMQFESSSYEGYFLASEKERDLFKLILKKEDELGDRSIMFTVQNED
B5: 50 (protein)
chain: YFGKLKSKLSVIRNLNDQVLFIDQGNRPLFEDMTDSDCRDNAPRTIFIISMYADSQPRGMAVAISVKCEKISTLSCENKIISFKEMNPPDNIKDTKSDIIFFQRSVPGHDNKMQFESSSYEGYFLACEKERDLFKLILKKEDELGDRSIMFTVQNED
B6: 54 (protein)
chain: YFGKLKSKLSVIRNLNDQVLFIDQGNRPLFEDMTDSDSRDNAPRTIFIISMYADSQPRGMAVTISVKSECISTLSSENKIISFKEMNPPDNIKDTKSDIIFFQRSVPGHDNKMQFESSSYEGYFLASEKERDLFKLILKKEDELGDRSIMFTVQNED
B7: 55 (protein)
chain: YFGKLESKLSVIRNLNDQVLFIDQGNRPLFEDMTDSDSRDNAPRTIFIISMYADSQPRGMAVAISVKSECISTLSSENKIISFKEMNPPDNIKDTKSDIIFFQRSVPGHDNKMQFESSSYEGYFLASEKERDLFKLILKKEDELGDRSIMFTVQNED
B8: 57 (protein)
chain: YFGKLKSKLSVIRNLNDQVLFIDQGNRPLFEDMTDSDSRDNAPRTIFIISMYADSQPRGMAVTISVKCEKISTLSCENKIISFKEMNPPDNIKDTKSDIIFFQRSVPGHDNKMQFESSSYEGYFLACEKERDLFKLILKKEDELGDRSIMFTVQNED
B9: C143: IL-18 polypeptide: V11I, C38A, K53A, C76A, C127A (protein)
chain: YFGKLESKLSIIRNLNDQVLFIDQGNRPLFEDMTDSDARDNAPRTIFIISMYADSQPRGMAVTISVKCEKISTLSAENKIISFKEMNPPDNIKDTKSDIIFFQRSVPGHDNKMQFESSSYEGYFLAAEKERDLFKLILKKEDELGDRSIMFTVQNED
B10: C144: IL-18 polypeptide: V11I, C38A, K53A, T63A, C76A, C127A (protein)
chain: YFGKLESKLSIIRNLNDQVLFIDQGNRPLFEDMTDSDARDNAPRTIFIISMYADSQPRGMAVAISVKCEKISTLSAENKIISFKEMNPPDNIKDTKSDIIFFQRSVPGHDNKMQFESSSYEGYFLAAEKERDLFKLILKKEDELGDRSIMFTVQNED
B11: C145: IL-18 polypeptide: V11I, C38A, K53A, S55A, C76A, C127A (protein)
chain: YFGKLESKLSIIRNLNDQVLFIDQGNRPLFEDMTDSDARDNAPRTIFIISMYADAQPRGMAVTISVKCEKISTLSAENKIISFKEMNPPDNIKDTKSDIIFFQRSVPGHDNKMQFESSSYEGYFLAAEKERDLFKLILKKEDELGDRSIMFTVQNED
B12: SEQ ID NO: 68: IL-18 polypeptide: V11I, C38A, M51G, K53A, C76A, C127A (protein)
chain: YFGKLESKLSIIRNLNDQVLFIDQGNRPLFEDMTDSDARDNAPRTIFIISGYADSQPRGMAVTISVKCEKISTLSAENKIISFKEMNPPDNIKDTKSDIIFFQRSVPGHDNKMQFESSSYEGYFLAAEKERDLFKLILKKEDELGDRSIMFTVQNED
B13: C147: IL-18 polypeptide: V11I, C38A, K53A, D54A, C76A, C127A (protein)
chain: YFGKLESKLSIIRNLNDQVLFIDQGNRPLFEDMTDSDARDNAPRTIFIISMYAASQPRGMAVTISVKCEKISTLSAENKIISFKEMNPPDNIKDTKSDIIFFQRSVPGHDNKMQFESSSYEGYFLAAEKERDLFKLILKKEDELGDRSIMFTVQNED

Experiments:
human IL-18BP = target: T1, human IL-18BP (Homo sapiens, UniProt O95998); test: IL-18BP binding alphaLISA assay (Example 4, used in Example 22B); details: IL-18BP AlphaLISA
T1 construct: His
T1 sequence (O95998 31-194): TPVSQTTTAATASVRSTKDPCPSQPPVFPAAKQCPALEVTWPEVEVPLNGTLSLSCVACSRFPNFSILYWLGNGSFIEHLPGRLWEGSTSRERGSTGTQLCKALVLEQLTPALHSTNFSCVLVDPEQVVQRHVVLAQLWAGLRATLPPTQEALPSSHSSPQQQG
Description: A human IL-18BP AlphaLISA Assay Kit is used to determine the binding affinity of each immunocytokine and IL-18 variant for IL-18BP, which detected the presence of free form IL-18BP.
Sixteen three-fold serial dilutions of IL-18 analytes are prepared in aMEM medium supplemented with 20% FCS, Glutamax, and 25 µM β-mercaptoethanol in the presence of 5 ng/mL of His-tagged human IL-18BP. Final IL-18 analytes concentration range from 2778 nM to […].
After 1 hr incubation at room temperature, free IL-18BP levels are measured using a […]. In a 384 well OPTIplate, 5 μL of 5× Anti-IL-18BP acceptor beads are added to 7.5 μL of an IL-18/IL-18BP mix. After 30 min incubation at room temperature with shaking, 5 μL of biotinylated Anti-IL-18BP antibodies are added to each well. The plate is incubated further for 1 hr at room temperature. Under subdued light, 12.5 μL of 2× streptavidin (SA) donor beads are pipetted into each well, and the wells are incubated with shaking for an additional 30 min at room temperature. The AlphaLisa signal is then measured on an Enspire plate reader with 680 and 615 nm as excitation and emission wavelengths, respectively. The dissociation constant (KD) is calculated based on a variable slope, four parameter analysis using GraphPad PRISM software.
An IL-18 binding protein AiphaLISA experiment substantially as described in Example 4 was performed on IL-18 polypeptide which can be incorporated into immunocytokine compositions as provided herein to assess ability to bind to IL-181BP. It is expected that the IL-18 polypeptides provided below would behave analogously to C086 (SEQ ID NO: 30) when incorporated into an immunocytokine composition as those otherwise provided herein.

NK-92 cells [1] = test: IFNγ induction cellular assay in NK-92 cells (Example 4, used in Example 22C); format: cell-based, human; details: IFNg stimulation in NK92 cells
Description: The ability of immunocytokines and IL-18 polypeptides provided herein are assessed for ability to induce IFN[…] in a cellular assay according to the protocol below.
The NK cell line NK-92 derived from a patient with lymphoma (ATCC® CRL-2407™) is cultured in aMEM medium supplemented with 20% FCS, Glutamax, 25 µM B-mercaptoethanol, and 100 IU/mL of recombinant human IL-2.
On the day of experiment, cells are harvested and washed with aMEM medium without IL-2 and containing 1 ng/mL of recombinant human IL-12. After counting, cells are seeded at 100,000 cells/well in a 384 well titer plate and incubated at 37° C./5% CO2. Sixteen 4-fold serial dilutions of IL-18 analytes are prepared in aMEM medium, and 1 ng/mL of IL-12 were added to the NK-92 cells. Final IL-18 analyte concentrations range from 56 nM to 5×10^−5 pM.
After incubating the cells for 16-20 hr at 37° C./5% CO2, 5 μL of supernatant is carefully transferred to a 384 microwell OptiPlate. IFNγ levels are measured using a human IFNγ AlphaLISA Assay Kit. Briefly, 10 μL of 2.5× AlphaLISA Anti-IFNγ acceptor beads and biotinylated antibody anti-IFNγ mix are added to the 5 μL of NK-92 supernatants. The mixtures are incubated for 1 hr at room temperature with shaking. Under subdued light, 2.5 μL of 2× streptavidin (SA) donor beads are pipetted into each well, and the wells are incubated for 30 min at room temperature with shaking. AlphaLISA signals are then measured on an EnSpire™ plate reader using 680 nm and 615 nm as excitation and emission wavelengths, respectively. Half maximal effective concentrations (EC50) are calculated based on a variable slope and four parameter analysis using GraphPad PRISM software.
(§1) The experiments described in Example 4 for determination of IFNg stimulation in NK92 cells (and inhibition by IL-18 BP) were performed substantially as described on IL-18 polypeptides in order to assess their activities and their suitability for incorporation into immunocytokine compositions. It is expected that the IL-18 polypeptides provided below would behave analagously to C086 (SEQ ID NO: 30) when incorporated into an immunocytokine composition as those otherwise provided herein.

NK-92 cells [2] = test: IL-18 binding protein inhibition cellular assay in NK-92 cells (Example 4, used in Example 22C); format: cell-based, human; details: inhibition by IL-18BP of IFNg stimulation in NK92 cells
Description: The NK cell line NK-92 derived from a patient with lymphoma (ATCC® CRL-2407™) is cultured in aMEM medium supplemented with 20% FCS-Glutamax, 25 µM B-mercaptoethanol, and 100 IU/mL of recombinant human IL-2.
On the day of experiment, cells are harvested and washed with aMEM medium without IL-2 and containing 1 ng/mL of recombinant human IL-12. After counting, the cells are seeded at 100,000 cells/well in a 384 well titer plate and incubated at 37° C./5% CO2. Sixteen 2-fold serial dilutions of Fc-fused human IL-18 binding protein isoform a (IL-18BPa) are prepared in aMEM medium. 1 ng/mL of IL-12 containing 2 nM of each IL-18 polypeptide variant is added to the NK-92 cells. The final IL-18 analyte concentration is 1 nM, and the final IL-18BPa concentration ranged from 566 nM to […].
After incubating the cells for 16-20 hr at 37° C./5% CO2, 5 μL of the supernatant is carefully transferred to a 384 microwell OptiPlate. IFNγ levels are measured using a human IFNγ AlphaLISA Assay Kit. Briefly, 10 μL of 2.5× AlphaLISA anti-IFNγ acceptor beads and biotinylated antibody anti-IFNγ mix are added to 5 μL of NK-92 supernatants. The mixtures are incubated for 1 hr at room temperature with shaking. Under subdued light, 2.5 μL of 2×SA donor beads are pipetted in each well and incubated for 30 min at room temperature with shaking. AlphaLISA signals are then measured on an EnSpire™ plate reader using 680 nm and 615 nm as excitation and emission wavelengths, respectively. Half maximal inhibitory concentrations (IC50) are calculated based on a variable slope and four parameter analysis using GraphPad PRISM software.
as §1

Row | Molecule | Kd (human IL-18BP) | EC50 (NK-92 cells [1]) | IC50 (NK-92 cells [2])
1 | B1 | 822 nM | 0.144 nM | 1060 nM
2 | B2 | > 1000 nM | 7.4 nM | 0.189 nM
3 | B3 | 0.03 nM | 0.115 nM | 0.444 nM
4 | B4 | 0.21 nM | 0.488 nM | 0.114 nM
5 | B5 | 340 nM | 0.0268 nM | > 1000 nM
6 | B6 | 446 nM | 0.962 nM | 23.5 nM
7 | B7 | 913 nM | 17.2 nM | > 1000 nM
8 | B8 | 50.2 nM | 0.045 nM | 146 nM
9 | B9 | 8.86 nM | 0.138 nM | 1.62 nM
10 | B10 | 0.66 nM | 0.012 nM | 7.52 nM
11 | B11 | 9.74 nM | 0.087 nM | 10.2 nM
12 | B12 | 373 nM | 0.037 nM | 733 nM
13 | B13 | 25.8 nM | 0.079 nM | 47.6 nM
